{"source": "patent CN112979797A", "about": "(CHINESE ACAD INSPECTION & QUARANTINE, dated 2021)", "binders": {"B1": {"name": "单克隆抗体2D3 (antibody, V domains shown)", "VH": "EVQLQQSKTELVRSGASVKLSCTASGFNIKDYFIHWVKQRPEQGLEWIGWIDPENGDTEYAPKFQGKATMTADTSSNTAYLQLGSLTSEDTAVYYCYSRGWHLENLEYWGQGTTLTVSS", "VL": "DVLMTQTPLSLPVSLGDQASISCRSSQSIVHSNGNTYLEWYLQKPGQSPKLLIYKVSNRFSGVPDRFSGSGSGTDFTLKISRVEAEDLGVYYCFQGSHVPRTFGGGTKLEIKR", "notes": "also called 2D3单抗; 2D3抗体"}}, "target": "T1, 原核表达的带HIS标签的重组蛋白SBV-N (SBV, UniProt H2AM13 1-233)", "T1 sequence": "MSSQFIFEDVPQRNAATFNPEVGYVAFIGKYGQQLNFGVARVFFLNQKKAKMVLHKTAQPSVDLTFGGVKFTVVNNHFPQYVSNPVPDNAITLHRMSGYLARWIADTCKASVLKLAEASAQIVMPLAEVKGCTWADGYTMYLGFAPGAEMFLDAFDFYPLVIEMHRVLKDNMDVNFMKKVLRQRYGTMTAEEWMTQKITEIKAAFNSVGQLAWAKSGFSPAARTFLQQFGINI", "assay": "Western blot, hybridoma supernatant on His-tagged recombinant protein"}
{"binder": "B1", "values": [{"measurement": "binding result", "value": "no binding"}]}
